Series [1] addresses T1, FtFur WT (Francisella tularensis FSC198 (100% …, UniProt Q5NIN6 1-140)). The series is described as follows: EMSA. Conditions: protein: recombinant; tags: none; chain copies: 4; label: 32P 5' end (EMSA). A general note: In EMSA bound probe runs differently from free probe, usually more slowly.
Series [2] has as its target T1, FtFur WT. Nature of the series: EMSA; 10 uM Mn2+; main species one dimer bound. Conditions: protein: recombinant; tags: none; chain copies: 4; label: 32P 5' end (EMSA).
The target of series [3] is T1, FtFur WT. The series is described as follows: SEC-MALLS-RI. Conditions: protein: recombinant; tags: none; chain copies: 4; label: none (SEC-MALLS, SAXS).

Usually Kd stands for the constant that tells how readily two partners part at equilibrium.

B1: PfigAL (PfigA, 43 bp) (dsDNA)
DNA 1: GGGCTACATGATAATGATAACGAATATCATTATCGTTTATGGG
DNA 2: CCCATAAACGATAATGATATTCGTTATCATTATCATGTAGCCC
For B1, the Kd with FtFur WT [1] is about 5 nM.

B2: PfigAS (dsDNA)
DNA 1: GGGGATAATGATAACGAATATCATTATCGGG
DNA 2: CCCGATAATGATATTCGTTATCATTATCCCC
For the molecule B2, in the series with FtFur WT [2], the binding result is “binds”.

B3: FurBox (EcFurBox) (dsDNA)
DNA 1: GGGGATAATGATAATCATTATCGGG
DNA 2: CCCGATAATGATTATCATTATCCCC
In the case of B3, in the series with FtFur WT [3], the binding result is listed as “binds”.

The values are drawn from article PMC6123631.
